The record followed here is the supplement of paper PMC5998384.

Data set [1] deals with HeLa Kyoto. In words: solubility in G1/S (NP-40 vs SDS abundance) (log2 ratio); higher = more soluble. As to conditions: cell cycle stage: G1/S.
In data set [2] the test system is HeLa Kyoto. In words: solubility change mitosis vs G1/S (difference of NP-40 vs SDS log2 ratios) (log2 ratio difference); higher = more soluble in mitosis.
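For solubility change mitosis vs G1/S (difference of NP-40 vs SDS log2 ratios) in this document: synchronized HeLa Kyoto cells (double thymidine block for G1/S, nocodazole release for mitosis), protein amounts in NP-40 versus SDS lysates quantified by mass spectrometry, three biological replicates.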
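For solubility in G1/S (NP-40 vs SDS abundance) in this document: HeLa Kyoto cells arrested at G1/S by double thymidine block, proteins quantified by TMT10plex mass spectrometry in mild NP-40 versus SDS extracts, three biological replicates.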

Consider “MSGGEVVCSGWLRKSPPEKKLKRYAWKRRWFVLRSGRLTGDPDVLEYYKNDHAKKPIRIIDLNLCQQVDAGLTFNKKEFENSYIFDINTIDRIFYLVADSEEEMNKWVRCICDICGFNPTEEDPVKPPGSSLQAPADLPLAINTAPPSTQADSSSATLPPPYQLINVPPHLETLGIQEDPQDYLLLINCQSKKPEPTRTHADSAKSTSSETDCNDNVPSHKNPASSQSKHGMNGFFQQQMIYDSPPSRAPSASVDSSLYNLPRSYSHDVLPKVSPSSTEADGELYVFNTPSGTSSVETQMRHVSISYDIPPTPGNTYQIPRTFPEGTLGQTSKLDTIPDIPPPRPPKPHPAHDRSPVETCSIPRTASDTDSSYCIPTAGMSPSRSNTISTVDLNKLRKDASSQDCYDIPRAFPSDRSSSLEGFHNHFKVKNVLTVGSVSSEELDENYVPMNPNSPPRQHSSSFTEPIQEANYVPMTPGTFDFSSFGMQVPPPAHMGFRSSPKTPPRRPVPVADCEPPPVDRNLKPDRKVKPAPLEIKPLPEWEELQAPVRSPITRSFARDSSRFPMSPRPDSVHSTTSSSDSHDSEENYVPMNPNLSSEDPNLFGSNSLDGGSSPMIKPKGDKQVEYLDLDLDSGKSTPPRKQKSSGSGSSVADERVDYVVVDQQKTLALKSTREAWTDGRQSTESETPAKSVK [GAB1]”, for which, in the data set with HeLa Kyoto [1], the “solubility in G1/S (log2)” value is 0.368. Moreover, in the data set on HeLa Kyoto [2], the “solubility change mitosis (log2)” value is -0.296.

Turning to “MSGGLAPSKSTVYVSNLPFSLTNNDLYRIFSKYGKVVKVTIMKDKDTRKSKGVAFILFLDKDSAQNCTRAINNKQLFGRVIKASIAIDNGRAAEFIRRRNYFDKSKCYECGESGHLSYACPKNMLGEREPPKKKEKKKKKKAPEPEEEIEEVEESEDEGEDPALDSLSQAIAFQQAKIEEEQKKWKPSSGVPSTSDDSRRPRIKKSTYFSDEEELSD [ZCRB1]”, the “solubility in G1/S (log2)” value with HeLa Kyoto [1] stood at 0.0915. For the same sequence, the “solubility change mitosis (log2)” value in the data set on HeLa Kyoto [2] stood at 0.122.

“MSGSCAAPGPGSGSSPAACRFAHYFVLCGIDADSGLEPDELAGENFDQSPLRRTFKSKVLAHYPQNIEWNPFDQDAVNMLCMPKGLSFRTQTDNKDPQFHSFIITREDGSRTYGFVLTFYEEVTSKQICTAMQTLYQMHNAEHYSSVYASSSCSMDSLASSLDEGDTTSLLKLQRYNSYDISRDTLYVSKSICLITPLPFMQACKKFLIQLYKAVTSQQPPPLPLESYIHNILYEVPLPPPGRSLKFYGVYEPVICQRPGPSELPLSDYPLREAFELLGLENLVQVFTCVLLEMQILLYSQDYQRLMTVAEGITTLLFPFQWQHVYVPILPASLLHFLDAPVPYLMGLQSKEGTDRSKLELPQEANLCFVDIDNHFIELPEEFPQFPNKVDFIQELSEVLVQFGIPPEGSLHCSESTSKLKNMVLKDLVNDKKNGNVCTNNISMYELLKGNETIARLQALAKRTGVAVEKMDLSASLGEKDKDLKLHCEEAELRDYQLNVQLREVFANRFTQMFADYEAFVIQTAQDMESWLTNREQMQNFDKASFLSDQPEPYLPFLSRFIETQMFATFIDNKIMSQWEEKDPLLRVFDTRIDKIRLYNVRAPTLRTSIYQKCSTLKEAAQSIEQRLMKMDHTAIHPHLLDMKIGQGKYEQGFFPKLQSDVLATGPTSNNRWVSRSATAQRRKERLRQHSEHVGLDNDLREKYMQEARSLGKNLRQPKLSDLSPAVIAQTNCKFVEGLLKECRMKTKRMLVEKMGHEAVELGHGEANITGLEENTLIASLCDLLERIWSHGLQVKQGKSALWSHLIQFQDREEKQEHLAESPVALGPERRKSDSGVMLPTLRVSLIQDMRHIQNMSEIKTDVGRARAWIRLSLEKKLLSQHLKQLLSNQPLTKKLYKRYAFLRCEEEREQFLYHLLSLNAVDYFCFTSVFTTIMIPYRSVIIPIKKLSNAIITSNPWICVSGELGDTGVMQIPKNLLEMTFECQNLGKLTTVQIGHDNSGLLAKWLVDCVMVRNEITGHTYRFPCGRWLGKGIDDGSLERILIGELMTSASDEDLVKQCRTPPQQKSPTTARRLSITSLTGKNNKPNAGQIQEGIGEAVNNIVKHFHKPEKERGSLTVLLCGENGLVAALEQVFHHGFKSARIFHKNVFIWDFIEKVVAYFETTDQILDNEDDVLIQKSSCKTFCHYVNAINTAPRNIGKDGKFQILVCLGTRDRLLPQWIPLLAECPAITRMYEESALLRDRMTVNSLIRILQTIQDFTIVLEGSLIKGVDV [DENND5B]”: the “solubility in G1/S (log2)” value with HeLa Kyoto [1] is -0.149. The “solubility change mitosis (log2)” value in the data set with HeLa Kyoto [2] is -0.179.

For the sequence “MSGSHTPACGPFSALTPSIWPQEILAKYTQKEESAEQPEFYYDEFGFRVYKEEGDEPGSSLLANSPLMEDAPQRLRWQAHLEFTHNHDVGDLTWDKIAVSLPRSEKLRSLVLAGIPHGMRPQLWMRLSGALQKKRNSELSYREIVKNSSNDETIAAKQIEKDLLRTMPSNACFASMGSIGVPRLRRVLRALAWLYPEIGYCQGTGMVAACLLLFLEEEDAFWMMSAIIEDLLPASYFSTTLLGVQTDQRVLRHLIVQYLPRLDKLLQEHDIELSLITLHWFLTAFASVVDIKLLLRIWDLFFYEGSRVLFQLTLGMLHLKEEELIQSENSASIFNTLSDIPSQMEDAELLLGVAMRLAGSLTDVAVETQRRKHLAYLIADQGQLLGAGTLTNLSQVVRRRTQRRKSTITALLFGEDDLEALKAKNIKQTELVADLREAILRVARHFQCTDPKNCSVELTPDYSMESHQRDHENYVACSRSHRRRAKALLDFERHDDDELGFRKNDIITIVSQKDEHCWVGELNGLRGWFPAKFVEVLDERSKEYSIAGDDSVTEGVTDLVRGTLCPALKALFEHGLKKPSLLGGACHPWLFIEEAAGREVERDFASVYSRLVLCKTFRLDEDGKVLTPEELLYRAVQSVNVTHDAVHAQMDVKLRSLICVGLNEQVLHLWLEVLCSSLPTVEKWYQPWSFLRSPGWVQIKCELRVLCCFAFSLSQDWELPAKREAQQPLKEGVRDMLVKHHLFSWDVDG [SGSM3]”, the “solubility in G1/S (log2)” value with HeLa Kyoto [1] was -0.177. Also, in the data set with HeLa Kyoto [2], the “solubility change mitosis (log2)” value turned out to be 0.011.

As to “MSKQQPTQFINPETPGYVGFANLPNQVHRKSVKKGFEFTLMVVGESGLGKSTLINSLFLTDLYPERVIPGAAEKIERTVQIEASTVEIEERGVKLRLTVVDTPGYGDAINCRDCFKTIISYIDEQFERYLHDESGLNRRHIIDNRVHCCFYFISPFGHGLKPLDVAFMKAIHNKVNIVPVIAKADTLTLKERERLKKRILDEIEEHNIKIYHLPDAESDEDEDFKEQTRLLKASIPFSVVGSNQLIEAKGKKVRGRLYPWGVVEVENPEHNDFLKLRTMLITHMQDLQEVTQDLHYENFRSERLKRGGRKVENEDMNKDQILLEKEAELRRMQEMIARMQAQMQMQMQGGDGDGGALGHHV [SEPT2]”, in the data set on HeLa Kyoto [1], the “solubility in G1/S (log2)” value amounted to 0.276. Moreover, in the data set with HeLa Kyoto [2], the “solubility change mitosis (log2)” value was -0.0125.

On to “MSLPLTEEQRKKIEENRQKALARRAEKLLAEQHQRTSSGTSIAGNPFQAKQGPSQNFPRESCKPVSHGVIFKQQNLSSSSNADQRPHDSHSFQAKGIWKKPEEMPTACPGHSPRSQMALTGISPPLAQSPPEVPKQQLLSYELGQGHAQASPEIRFTPFANPTHKPLAKPKSSQETPAHSSGQPPRDAKLEAKTAKASPSGQNISYIHSSSESVTPRTEGRLQQKSGSSVQKGVNSQKGKCVRNGDRFQVLIGYNAELIAVFKTLPSKNYDPDTKTWNFSMNDYSALMKAAQSLPTVNLQPLEWAYGSSESPSTSSEGQAGLPSAPSLSFVKGRCMLISRAYFEADISYSQDLIALFKQMDSRRYDVKTRKWSFLLEEHSKLIAKVRCLPQVQLDPLPTTLTLAFASQLKKTSLSLTPDVPEADLSEVDPKLVSNLMPFQRAGVNFAIAKGGRLLLADDMGLGKTIQAICIAAFYRKEWPLLVVVPSSVRFTWEQAFLRWLPSLSPDCINVVVTGKDRLTAGLINIVSFDLLSKLEKQLKTPFKVVIIDESHFLKNSRTARCRAAMPVLKVAKRVILLSGTPAMSRPAELYTQIIAVKPTFFPQFHAFGLRYCDAKRMPWGWDYSGSSNLGELKLLLEEAVMLRRLKSDVLSQLPAKQRKIVVIAPGRINARTRAALDAAAKEMTTKDKTKQQQKDALILFFNRTAEAKIPSVIEYILDLLESGREKFLVFAHHKVVLDAITQELERKHVQHIRIDGSTSSAEREDLCQQFQLSERHAVAVLSITAANMGLTFSSADLVVFAELFWNPGVLIQAEDRVHRIGQTSSVGIHYLVAKGTADDYLWPLIQEKIKVLAEAGLSETNFSEMTESTDYLYKDPKQQKIYDLFQKSFEKEGSDMELLEAAESFDPGSASGTSGSSSQNMGDTLDESSLTASPQKKRRFEFFDNWDSFTSPL [SMARCAL1]”, for which the “solubility in G1/S (log2)” value with HeLa Kyoto [1] stood at 0.0557. The “solubility change mitosis (log2)” value in the data set with HeLa Kyoto [2] was 0.0546.

Turning to “MSLRRHIGNPEYLMKRIPQNPRYQHIKSRLDTGNSMTKYTEKLEEIKKNYRYKKDELFKRLKVTTFAQLIIQVASLSDQTLEVTAEEIQRLEDNDSAASDPDAETTARTNGKGNPGEQSPSPEQFINNAGAGDSSRSTLQSVISGVGELDLDKGPVKKAEPHTKDKPYPDCPFLLLDVRDRDSYQQCHIVGAYSYPIATLSRTMNPYSNDILEYKNAHGKIIILYDDDERLASQAATTMCERGFENLFMLSGGLKVLAQKFPEGLITGSLPASCQQALPPGSARKRSSPKGPPLPAENKWRFTPEDLKKIEYYLEEEQGPADHPSRLNQANSSGRESKVPGARSAQNLPGGGPASHSNPRSLSSGHLQGKPWK [CEP41]”, the “solubility in G1/S (log2)” value in the data set with HeLa Kyoto [1] turned out to be 0.311. In addition, in the data set with HeLa Kyoto [2], the “solubility change mitosis (log2)” value amounted to 0.231.

Regarding “MSMTLGYWDIRGLAHAIRLLLEYTDSSYEEKKYTMGDAPDYDRSQWLNEKFKLGLDFPNLPYLIDGAHKITQSNAILCYIARKHNLCGETEEEKIRVDILENQAMDVSNQLARVCYSPDFEKLKPEYLEELPTMMQHFSQFLGKRPWFVGDKITFVDFLAYDVLDLHRIFEPNCLDAFPNLKDFISRFEGLEKISAYMKSSRFLPKPLYTRVAVWGNK [GSTM4]”, the “solubility in G1/S (log2)” value in the data set with HeLa Kyoto [1] was -0.0869. In addition, the “solubility change mitosis (log2)” value with HeLa Kyoto [2] was -0.101.

With “MSNGYSTDENFRYLISCFRARVKMYIQVEPVLDYLTFLPAEVKEQIQRTVATSGNMQAVELLLSTLEKGVWHLGWTREFVEALRRTGSPLAARYMNPELTDLPSPSFENAHDEYLQLLNLLQPTLVDKLLVRDVLDKCMEEELLTIEDRNRIAAAENNGNESGVRELLKRIVQKENWFSAFLNVLRQTGNNELVQELTGSDCSESNAEIENLSQVDGPQVEEQLLSTTVQPNLEKEVWGMENNSSESSFADSSVVSESDTSLAEGSVSCLDESLGHNSNMGSDSGTMGSDSDEENVAARASPEPELQLRPYQMEVAQPALEGKNIIICLPTGSGKTRVAVYIAKDHLDKKKKASEPGKVIVLVNKVLLVEQLFRKEFQPFLKKWYRVIGLSGDTQLKISFPEVVKSCDIIISTAQILENSLLNLENGEDAGVQLSDFSLIIIDECHHTNKEAVYNNIMRHYLMQKLKNNRLKKENKPVIPLPQILGLTASPGVGGATKQAKAEEHILKLCANLDAFTIKTVKENLDQLKNQIQEPCKKFAIADATREDPFKEKLLEIMTRIQTYCQMSPMSDFGTQPYEQWAIQMEKKAAKEGNRKERVCAEHLRKYNEALQINDTIRMIDAYTHLETFYNEEKDKKFAVIEDDSDEGGDDEYCDGDEDEDDLKKPLKLDETDRFLMTLFFENNKMLKRLAENPEYENEKLTKLRNTIMEQYTRTEESARGIIFTKTRQSAYALSQWITENEKFAEVGVKAHHLIGAGHSSEFKPMTQNEQKEVISKFRTGKINLLIATTVAEEGLDIKECNIVIRYGLVTNEIAMVQARGRARADESTYVLVAHSGSGVIEHETVNDFREKMMYKAIHCVQNMKPEEYAHKILELQMQSIMEKKMKTKRNIAKHYKNNPSLITFLCKNCSVLACSGEDIHVIEKMHHVNMTPEFKELYIVRENKALQKKCADYQINGEIICKCGQAWGTMMVHKGLDLPCLKIRNFVVVFKNNSTKKQYKKWVELPITFPNLDYSECCLFSDED [IFIH1]”, the “solubility in G1/S (log2)” value with HeLa Kyoto [1] is -0.109. Further, the “solubility change mitosis (log2)” value in the data set with HeLa Kyoto [2] is -0.0235.
